Substrate in the data set: CCCCCCCCCCCCCC(=O)SCCNC(=O)CCNC(=O)[C@H](O)C(C)(C)COP(=O)(O)OP(=O)(O)OC[C@H]1O[C@@H](n2cnc3c(N)ncnc32)[C@H](O)[C@@H]1OP(=O)(O)O
The experiment in a line: purified protein. The note with it: fatty acyl-CoA binding site.

1 protein from paper PMC2829124 can be followed below.

One may read the Km as the substrate concentration at which the rate is half of its maximum.

B1: N-Myristoyltransferase (LdNMT) (Leishmania donovani) (protein)
chain: MSRNPSNSDAAHAFWSTQPVPQTEDETEKIVFAGPMDEPKTVADIPEEPYPIASTFEWWTPNMEAADDIHAIYELLRDNYVEDDDSMFRFNYSEEFLQWALCPPSYIPDWHVAVRRKADKKLLAFIAGVPVTLRMGTPKYMKVKAQEKGQEEEAAKYDAPRHICEINFLCVHKQLREKRLAPILIKEVTRRVNRTNVWQAVYTAGVLLPTPYASGQYFHRSLNPEKLVEIRFSGIPAQYQKFQNPMAMLKRNYQLPNAPKNSGLREMKPSDVPQVRRILMNYLDNFDVGPVFSDAEISHYLLPRDGVVFTYVVENDKKVTDFFSFYRIPSTVIGNSNYNILNAAYVHYYAATSMPLHQLILDLLIVAHSRGFDVCNMVEILDNRSFVEQLKFGAGDGHLRYYFYNWAYPKIKPSQVALVML
For B1, the Km was found to be 0.0175 ± 0.0029 µM.
